± gives the standard deviation.

The data set in a line: protein stability index of a GFP-peptide fusion (GPS, HEK-293T) (PSI 1-6); higher = more stable. As to conditions: c terminus: a fixed tail appended.
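Also: 24-mer peptide tiles fused after GFP, lentivirally expressed, FACS-sorted into six equal bins by GFP/DsRed ratio, decoded by Illumina sequencing, PSI is the read-weighted mean bin number.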

Consider ESPSTLQVLPDSESLPRSEIDEKV [MAGEA10], for which the protein stability index is 5.62 ± 0.19 (treatment: DMSO) and 5.63 ± 0.3 (treatment: MLN4924 1 uM, 8 h).

For SQGAISEGAQRDRFPGRKQPGVHE [C22orf31], the protein stability index reads like this: (treatment: DMSO) 5.05 ± 0.095; (treatment: MLN4924 1 uM, 8 h) 5.1 ± 0.18.

Regarding WELGGGTSLLDLISIPITGDTLRT [DYNC2LI1], the protein stability index was found to be 2.22 ± 0.32 (treatment: DMSO) and 2.36 ± 0.22 (treatment: MLN4924 1 uM, 8 h).

For the sequence CCINSHCGWPRGKDAPCYESDTDI [DRICH1], the protein stability index runs as follows: (treatment: DMSO) 2.94 ± 0.3; (treatment: MLN4924 1 uM, 8 h) 3.02 ± 0.29.

Take NHCMLSPSSSGHLADSDTLSSAEE [C18orf25]: the protein stability index by setting is: (treatment: DMSO) 5.36 ± 0.19; (treatment: MLN4924 1 uM, 8 h) 5.4 ± 0.098.

For the sequence KEPVIIECGHNFCKACITRWWEDL [TRIM39], the protein stability index amounted to 2.53 ± 0.5 (treatment: DMSO) and 2.62 ± 0.36 (treatment: MLN4924 1 uM, 8 h).

Turning to NAIRVHHALATRASDYSKKSNVLK [PSD2], the protein stability index runs as follows: (treatment: DMSO) 3.46 ± 0.31; (treatment: MLN4924 1 uM, 8 h) 3.5 ± 0.12.

Consider PSSYNCSQSILPLEHGSIYIPSSY [ESR2], for which the protein stability index is, setting by setting: (treatment: DMSO) 2.17 ± 0.2; (treatment: MLN4924 1 uM, 8 h) 2.26 ± 0.26.

Consider RWTFEKACHPFLLGPPLVRKRIHD [TOR1AIP2], for which the protein stability index came out at 2.64 ± 0.18 (treatment: DMSO) and 2.76 ± 0.33 (treatment: MLN4924 1 uM, 8 h).

Take FPPEGNMEDKEMTGPQLPESLEDV [ZNF263]: the protein stability index reads like this: (treatment: DMSO) 5.58 ± 0.21; (treatment: MLN4924 1 uM, 8 h) 5.48 ± 0.22.

Regarding VKDTDDVPMILVGNKCDLEDERVV [RAP1B], the protein stability index came to 4.65 ± 0.45 (treatment: DMSO) and 5.02 ± 0.16 (treatment: MLN4924 1 uM, 8 h).

For the sequence QLSMLPHLADLVSYSIQKVIGFAK [VDR], the protein stability index reads like this: (treatment: DMSO) 2.28 ± 0.2; (treatment: MLN4924 1 uM, 8 h) 2.48 ± 0.5.

Regarding SPSTLIGSLRTLELGSESQGASES [HDAC6], the protein stability index by setting is: (treatment: DMSO) 5.08 ± 0.29; (treatment: MLN4924 1 uM, 8 h) 4.92 ± 0.33.

Consider KRGSIPTSLTALSLASASPPLSGR [PPFIA4], for which the protein stability index (treatment: DMSO) stood at 3.99 ± 0.2 and the protein stability index (treatment: MLN4924 1 uM, 8 h) was 4.17 ± 0.28.

Consider PGPREALSQLRVLCCEWLRPEKHT [ZNF232], for which the protein stability index is, setting by setting: (treatment: DMSO) 2.36 ± 0.21; (treatment: MLN4924 1 uM, 8 h) 2.15 ± 0.4.

DMLIREVVEKRLCMYEHGEDTHQS [RSPH3]: the protein stability index by setting is: (treatment: DMSO) 3.7 ± 0.26; (treatment: MLN4924 1 uM, 8 h) 3.85 ± 0.28.

Consider RKNPYPTKGEKIMLAIITKMTLTQ [IRX6], for which the protein stability index reads like this: (treatment: DMSO) 2.61 ± 1; (treatment: MLN4924 1 uM, 8 h) 2.74 ± 0.62.

In the case of RARIAKGLRLCRPKAKAKAKAKAK [RPL29], the protein stability index by setting is: (treatment: DMSO) 4.16 ± 0.48; (treatment: MLN4924 1 uM, 8 h) 4 ± 0.38.

Take YLWMCSTLALLLNFLACLASFCVE [SCAMP3]: the protein stability index runs as follows: (treatment: DMSO) 3.53 ± 0.36; (treatment: MLN4924 1 uM, 8 h) 3.02 ± 0.12.

Take YFTKSGFHPDPRQKALYRRLATVH [CLPTM1]: the protein stability index reads like this: (treatment: DMSO) 2.12 ± 0.41; (treatment: MLN4924 1 uM, 8 h) 2.35 ± 0.22.

In turn, VLPCIQQIQRISLNTLTLNVKSEK [FLOT1] displayed a protein stability index (treatment: DMSO) of 2.84 ± 0.14 and a protein stability index (treatment: MLN4924 1 uM, 8 h) of 2.98 ± 0.24.

Consider KISVPRDVMLEELSLLTNRGSKMF [MYOZ1], for which the protein stability index runs as follows: (treatment: DMSO) 2.8 ± 0.28; (treatment: MLN4924 1 uM, 8 h) 2.76 ± 0.35.

As to GIESMDQCRHTLEQHNWNIEAAVQ [FAF2], the protein stability index by setting is: (treatment: DMSO) 3.78 ± 0.2; (treatment: MLN4924 1 uM, 8 h) 4.08 ± 0.19.

For the sequence NSASDPSLKDGLSDSDSELSSSEG [PSD2], the protein stability index (treatment: DMSO) was determined as 5.69 ± 0.14 and the protein stability index (treatment: MLN4924 1 uM, 8 h) was 5.61 ± 0.19.

As to GFFEEKGAIFCPPCYDVRYAPSCA [PDLIM7], the protein stability index (treatment: DMSO) turned out to be 2.26 ± 0.22 and the protein stability index (treatment: MLN4924 1 uM, 8 h) was determined as 2.58 ± 0.3.

As for KLGWGHFSTVWLCWDMQGKRFVAM [SRPK2], the protein stability index came to 2.9 ± 0.87 (treatment: DMSO) and 2.64 ± 1.2 (treatment: MLN4924 1 uM, 8 h).

In the case of LKALTRNVNRLNESFRDLQLRLLQ [SCARA5], the protein stability index reads like this: (treatment: DMSO) 2.37 ± 0.38; (treatment: MLN4924 1 uM, 8 h) 2.13 ± 0.46.

In the case of PGRRDEDAGEGIQCSQRMLSFSDA [TMEM175], the protein stability index was found to be 5.07 ± 0.18 (treatment: DMSO) and 4.91 ± 0.3 (treatment: MLN4924 1 uM, 8 h).

As to THTQIDQQPPRLLIVHIALPSWAD [M1AP], the protein stability index is, setting by setting: (treatment: DMSO) 2.75 ± 0.59; (treatment: MLN4924 1 uM, 8 h) 2.68 ± 0.54.

In the case of HVQDPQNTVKVQVLYPDGQAQMIH [INTS4], the protein stability index (treatment: DMSO) was found to be 3.74 ± 0.23 and the protein stability index (treatment: MLN4924 1 uM, 8 h) was 3.52 ± 0.29.

Turning to TACAVIILTIICYLGLPRLEFYRY [SLC29A1], the protein stability index amounted to 3.04 ± 0.18 (treatment: DMSO) and 3.1 ± 0.13 (treatment: MLN4924 1 uM, 8 h).

As for NDLDRIAQPNYIPTQQDVLRTRVK [GNAI1], the protein stability index is, setting by setting: (treatment: DMSO) 4.81 ± 0.13; (treatment: MLN4924 1 uM, 8 h) 4.92 ± 0.15.

On to RPNRQLGSMVEIAKQLQAVKRKIR [TRIM39], for which the protein stability index runs as follows: (treatment: DMSO) 2.85 ± 0.43; (treatment: MLN4924 1 uM, 8 h) 3.03 ± 0.27.

SDFLTLHSIIISLVEAGAHTDMTN [FEM1B]: the protein stability index is, setting by setting: (treatment: DMSO) 2.87 ± 0.43; (treatment: MLN4924 1 uM, 8 h) 2.93 ± 0.54.

HRLRVQQAALRAARLRHQELFRLR [NOP53] returned a protein stability index (treatment: DMSO) of 2.88 ± 0.23 and a protein stability index (treatment: MLN4924 1 uM, 8 h) of 2.87 ± 0.4.

LKTSNLPEELRKVFITYSMDTAME [TRAF3IP2]: the protein stability index was 2.41 ± 0.28 (treatment: DMSO) and 2.43 ± 0.56 (treatment: MLN4924 1 uM, 8 h).

Turning to NMLFQQNKDGIGEICLWGRHIFMG [ACSBG2], the protein stability index is, setting by setting: (treatment: DMSO) 2.3 ± 0.33; (treatment: MLN4924 1 uM, 8 h) 2.3 ± 0.54.

For EVLREQAGGDATENFEDVGHSTDA [CYB5A], the protein stability index (treatment: DMSO) was 5.57 ± 0.43 and the protein stability index (treatment: MLN4924 1 uM, 8 h) amounted to 5.67 ± 0.19.

Turning to NKQAYDLAKALLKRTAQAIEPYIT [PDS5B], the protein stability index was 2.54 ± 0.46 (treatment: DMSO) and 2.63 ± 0.37 (treatment: MLN4924 1 uM, 8 h).

Regarding FTFLSAKCLQGNADGDGGGGQCCR [PCDHGC5], the protein stability index is, setting by setting: (treatment: DMSO) 2.97 ± 0.18; (treatment: MLN4924 1 uM, 8 h) 3.29 ± 0.26.

For PAPPSDALLDLHFPSDHLGDLGDP [TFE3], the protein stability index runs as follows: (treatment: DMSO) 5 ± 0.23; (treatment: MLN4924 1 uM, 8 h) 5.1 ± 0.17.

GFTPDRLSSSCCHTVPDFHLSSPA [PLK2] had a protein stability index (treatment: DMSO) of 3.02 ± 0.22 and a protein stability index (treatment: MLN4924 1 uM, 8 h) of 3.15 ± 0.16.

Take FAGGFVDFGACDGGLLTGNEKITM [KRT13]: the protein stability index worked out at 2.73 ± 0.32 (treatment: DMSO) and 2.56 ± 0.079 (treatment: MLN4924 1 uM, 8 h).

VSLTSPSAPPTSRTSSGNVWVTHE [PPFIA4]: the protein stability index worked out at 3.35 ± 0.21 (treatment: DMSO) and 3.47 ± 0.32 (treatment: MLN4924 1 uM, 8 h).

For the sequence RSLENYHFVDEHGKDQGINIRQKV [CLINT1], the protein stability index stood at 3.77 ± 0.23 (treatment: DMSO) and 3.75 ± 0.4 (treatment: MLN4924 1 uM, 8 h).

In the case of REFDVRQTPQVNINPFTPDSLLLH [WEE1], the protein stability index by setting is: (treatment: DMSO) 3.41 ± 0.47; (treatment: MLN4924 1 uM, 8 h) 3.52 ± 0.15.

Sequence MNYSEIESKVREATNDDPWGPSGQ [CLINT1] yielded a protein stability index (treatment: DMSO) of 4.84 ± 0.22 and a protein stability index (treatment: MLN4924 1 uM, 8 h) of 4.96 ± 0.14.

SKFKKLMKQGGAALEGSALANGRA [DLX1]: the protein stability index was 3.78 ± 0.34 (treatment: DMSO) and 4 ± 0.26 (treatment: MLN4924 1 uM, 8 h).

Turning to CRPLLPSCTTRLCQEEQLRSHENK [PSD2], the protein stability index is, setting by setting: (treatment: DMSO) 4 ± 0.13; (treatment: MLN4924 1 uM, 8 h) 3.88 ± 0.34.

Consider DSASLPRKPSVPWQRQMDQPQDRN [RASAL3], for which the protein stability index came to 4.65 ± 0.22 (treatment: DMSO) and 4.78 ± 0.23 (treatment: MLN4924 1 uM, 8 h).

With QPGPSGAPAQRATRGFLRSPSSDL [RETREG3], the protein stability index (treatment: DMSO) turned out to be 3.97 ± 0.24 and the protein stability index (treatment: MLN4924 1 uM, 8 h) turned out to be 4.27 ± 0.23.

For YMSINTHLGKEQSRRDDLEALGHM [CSNK1G1], the protein stability index reads like this: (treatment: DMSO) 3.28 ± 0.19; (treatment: MLN4924 1 uM, 8 h) 3.74 ± 0.29.

Sequence NNDCRIYVGNLPPDIRTKDIEDVF [SRSF1] had a protein stability index (treatment: DMSO) of 3.09 ± 0.31 and a protein stability index (treatment: MLN4924 1 uM, 8 h) of 3.3 ± 0.37.

On to LKVTGKPDAETLKVMKQPRCGVPD [MMP1], for which the protein stability index is, setting by setting: (treatment: DMSO) 4.47 ± 0.3; (treatment: MLN4924 1 uM, 8 h) 4.49 ± 0.15.

For DPHSGHFVALKSVRVPNGGGGGGG [CDK4], the protein stability index reads like this: (treatment: DMSO) 4.01 ± 0.12; (treatment: MLN4924 1 uM, 8 h) 3.87 ± 0.33.

With GYPTYKEKVKKRPGGRPEVIYNYV [BTBD10], the protein stability index was 2.41 ± 0.16 (treatment: DMSO) and 2.85 ± 0.33 (treatment: MLN4924 1 uM, 8 h).

Turning to KMKTRELHRESSNFDSIYICPSTF [HDAC6], the protein stability index was found to be 2.26 ± 0.36 (treatment: DMSO) and 2.71 ± 0.39 (treatment: MLN4924 1 uM, 8 h).

Take QLDSRYWRITNAKGDVEEVQGPGV [FBXO3]: the protein stability index reads like this: (treatment: DMSO) 4.14 ± 0.22; (treatment: MLN4924 1 uM, 8 h) 4.22 ± 0.14.

(Values after the supplement of paper PMC10567573.)
